This note sets out measurements from the domain aggregation screens of Martell et al. (2025).

This series can be described thus: soluble fraction after stress (log2 fold change); higher = more stays soluble; pooled small domains, quantitative proteomics. The settings on record: stress: 75 degC.
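Further: 20 min heating vs room temperature control held 20 min.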

Consider “HMAADWTAIKLAYVNGGMSMRELAQRFHVGAAGLMKRAAKEGWEAERQQNSAKVSNAAQMLIN”, for which the “soluble fraction (log2)” value came out at 0.049.
Consider “HMAAEEAFPGGRIVQNAEENRLQILFDEIPGEDVRAALKSHGFRWSPKNKAWQRQLTQNAEYDARRILGI”, for which the “soluble fraction (log2)” value is -0.06.
On to “HMAAEELTVDKILTAQSFGVTAEAILAKVNDPANTVATLTQADVDRLRAAGVPEGVVTALQARAPQ”, for which the “soluble fraction (log2)” value turned out to be 0.118.
The figure for “HMAAENAVGARVKALREAMDLSLRDLSERSGVSPTMLSQVERGSTSPTLAVAEKIAAGLDLSLSQLLRL” is 0.137; for “HMAAGADEATTVPNVSGDTLNQAIKSLKAEGLGYMLSGAGARVRDQMPEPGAEMTKGSVVMLYMDGDAEVD” it is -0.0497; for “HMAAGVESLTEKEFAVASLVGGGASNREIAERLAMSERTVKSHLSSIFRKMDVRDRVQLALAMND” it is -0.0767.
Regarding “HMAAIPATVDEETYRRLKPMLKQYGILYHEFKPLRSGKKGAVELIFMEKDLALVQELLSRLKKEK”, the “soluble fraction (log2)” value came out at 0.432.
Consider “HMAAIPEQVSEEVVSAVKASGIDPGKVTKEQWTSLLKGRRTALGSSSGKLFMLSKAPVGYTLKAVNA”, for which the “soluble fraction (log2)” value came to 0.439.
The figure for “HMAAMDMFVKLDALDAELTEQLKALPAEPDDARVERGLALLTDYDHRIKALLTEIFGGENDFDKVL” is -3.1.
“HMAAPPPLSDYRNMQEAEHIRNILLQHHGNVRRAAAALELSRPYLYQKMKQLGINIAELRELSLSHSS”: the “soluble fraction (log2)” value is -1.03.
As to “HMAASEAESIRILLSEGVDRVHLRKPQSAEADMRRLIEALPPELYPRLTLQDHLHLAGEYGT”, the “soluble fraction (log2)” value is -0.0361.
As for “HMAATGPLTPREAEIARLAAGHLSNRQIAEQLVVSERTVENHLYRIFIKLAVTGRDDLAAALAATEQ”, the figure is -2.55; as for “HMAATNVKVPDLKGWDYNNAVGKYGDKLSFVKKSIYSDSVSKGIIIYNARVGETVAQGTTIEVTVSLGPKG”, -1.46.
The figure for “HMAAVPYQVKITTEDLRIRTGPGTNHDFTGQYTGKGVFTIVEESEGSGAPIWGRLKSGAGWIGIDPSWSVR” is -0.546; for “HMADAGQTTAATELKQAPNAGSATISQLSAGQTLQIGTRQGAWYQVKTPQGEGWVRMLSVRLQ” it is -0.0302; for “HMADEGFRQTVLAVLARWESKIHHGQYNALKAKVMNGNWSSFVKQVVKFQGKFIHPDAAKELLGLFG” it is -3.5.
The figure for “HMADFIKEIKTNNPRQLLKSILSSFMPRALILELEMLLWNDLKSKPIGEWSNTQIENVGKLLNNWILKPAA” is 0.162; for “HMADIWDLLRSEYKLTETDVRMLTDMLPDELMNDFRSEVLALRDRMNRYKVNNPKSYVVTSLKNFIIQHTP” it is -1.09.
“HMADKNIIGVLSAADNLGKVRITTANGEKYIITVPDGLSDIVKTYWEEEVSVKYVIEKRRKILVDIDG”: the “soluble fraction (log2)” value was -2.04.
In the case of “HMADLIIMSSDATEKQVDKVINKIKNMGFNVNISKGTEKTIIGIIGDTRGISDEVFKIMPGVIEVISILRD”, the “soluble fraction (log2)” value is -1.09.
As for “HMADLIVFTTDANKEKKVDDETYFYLDVVSDGKLVENYELTEKQYNYIKDLGVGEYVYNEKGKLDSYTAFT”, the “soluble fraction (log2)” value was -0.00206.
In the case of “HMADPLQLLEQQRQDYIQAVTEYLNSHPNAKPIWDVMKKDAGYGDMKLTDIPLGILKKLYITLT”, the “soluble fraction (log2)” value is -0.65.
As for “HMADRVFGHIPGVAVGSIFPDRRSLSQTGVHRPTQAGISGNKTDGADSIVVSGGYRDDRDYGDLIIYTG”, the figure is -0.107.
Regarding “HMADTFVMPDLVYRRYEPVRGYFERGGFHMGAVKFEPYEGISDGTILRQNPLPGHPLRRRDVISLVVAAS”, the “soluble fraction (log2)” value was -2.4.
For “HMADYYETLGVERTASEEDIKRAYRKMSRKYHPDIAGPEFEEKFKEVNTAYEVLSDPDKRRMYDAGVDPND”, the “soluble fraction (log2)” value stood at 0.0815.
On to “HMADYYSILGLTKNATDIEIKSAFRKLAKIYHPDKNPDPNARVLFEHILKAYDTLINPHSRRRYDSL”, for which the “soluble fraction (log2)” value is -1.31.
In the case of “HMAEELELFHRLISVTGVGPKGALGFLSQLKPQEIILAILSDDVKTLSKAPGVGRKTAQRVILELKDKF”, the “soluble fraction (log2)” value is -1.07.
As for “HMAEGPYSGKKVEKYPGGMEKRETMYSEGKLTRVTEFHQSGQKKMEVKVDANGQWKRLYWDNNGNPT”, the figure is -0.0401.
With “HMAEIIVHEINRHLGESDEPVEFPEERREEAVAELLKNFHNDDAFRKMDDGKYEVALDGEAVREAARSLLA”, the “soluble fraction (log2)” value came out at 0.175.
The figure for “HMAELTTVQAADILHVSRPFLIKLLDEGQIPYHRVGKHRRIRMEDVMNYKRAIDQQREAVLDQLVAEA” is -0.371.
As for “HMAEMLQDVLNMLSAKDREILVRYYYYYESVKQVAAEMQMSESAVKMRMSRARKKMQQELIDKG”, the figure is -4.61.
The figure for “HMAEPAEDLLSLEGMDKGLAYQLASNGVVTREDLAELATDDLLEIREMDAEQAAALIMKAREHWFEAEQQ” is 0.755.
As for “HMAEPEALLAMAQRILGEEVAQSLFQGAAREQGKEGYLPDPTPAFLDALEARLSGSVGAATAHAMISQLVG”, the “soluble fraction (log2)” value was -0.15.
The figure for “HMAEPSTSYTQFMDQAKEGKIKRVDVQGRTLTVTPTEGATYKITAPGDLWMVEDLRKAGVQVYGQP” is 0.29.
As for “HMAEPYDERKVMEQMIPKGKNTIVAHLGHLKDHGETGYLQEALSYLRERESELGFDLKEVRALVHN”, the figure is 0.365; as for “HMAEQVLHQKLAARRKELNSLVAQVARVRGIPHSHVHSGLRREAGGPPLAQATTDQVEARISLARKWLRA”, -1.47; as for “HMAERLQARIDAPGVRLDKALAETFPTLSRARLQALLADGAVTRDGQTVSNGSAKAQPGLYVVALPPVA”, 0.385.
As for “HMAESNQIQLSDVREALNMIGPASWLDLVHYLDTGKGRGGQRLRRMLKSLSRSGEIELVARGTYQITDN”, the figure is -0.437; as for “HMAEVALFVNGSDVNLRSGPGQESTRVIGSLNLGDEVRIKSQNGQWREVYVPKTRQVGWVAHWLLSEAPP”, -0.535.
On to “HMAEVPDLRNKTQQEAEAELTNHNLKLGNVTEEYSATVEAGRVISQSTSYGTKVLEGSSVDITISKGPEPT”, for which the “soluble fraction (log2)” value stood at 0.135.
For the sequence “HMAEWLFDARKIPDEVMNYLRRIAVQAIEEKHYSPELVADLLGISRSSIYDWLNWYRNGGEEDLDTRKA”, the “soluble fraction (log2)” value was -1.53.
Consider “HMAFAQMAQEAAKGKDDFNDLRQEMEAVIKEQPHILLMAQFGQNPYEIAYQEAKRRKAQDQQQQQ”, for which the “soluble fraction (log2)” value was 0.877.
For the sequence “HMAFGTGTVTASSLRVREDASTSAATLDTLSKGSKVSVLADEQDGFYKVQIGEQVGYMSAEYLDVTE”, the “soluble fraction (log2)” value is 0.00175.
For “HMAFKNGLLQTSKKVTLVRKVDGVTMRFDSLRAASVFLGRNKGYLSNVIKNGRTLDNYEIVVGE”, the “soluble fraction (log2)” value was -1.04.
The figure for “HMAFRIGGFVQEGSVVRQQDGGTVRFEVTDTAHSVPVTYKGSLPDLFKEGKGVVAQGKLMNGTFVADQVLA” is 0.165; for “HMAGATDTVRNLLERQIREGELLPGQRLPTEPELAARLGVSRNSLREALQSLEDSGLIVKRHGIGTFVTE” it is 0.0985; for “HMAGLELVVTREQAGRTVKSLLRGELGISTALMGRLKRTGTGLTVNGTRVFTNAVLREGDRLAVDLDAAE” it is -1.35.
As for “HMAGLKERLFYFIEYKGLTVQSFEKTVGLSNGAVSKMGDNTRRSTIDKISNFFGDLNKNWLLTGEGEMLI”, the figure is -2.98; as for “HMAGRKMMVMANNLSVRKSANSLSEKLADLSRGDTVEYISSTNGWNKVRYKGQIGYVSSYYLKDTGEEVE”, -0.562.
“HMAGTKRAENIEIQKLTEVLEARLDSVGFFWPDHKAESMIMTLRNMISRLPLTEADVRVFHGIIKSLADK”: the “soluble fraction (log2)” value is -0.486.
